In the data set the test system is HMO1 (Saccharomyces cerevisiae). Put plainly: optical tweezers (DNA stretching). Particulars: Assay buffer, salt, pH and temperature not given in the material (protein stored in 20 mM HEPES pH 7.5, 100 mM KCl, 1 mM EDTA, 1 mM DTT, 5% glycerol).

By Kd is commonly meant a measure of binding affinity in units of concentration. Take bacteriophage lambda DNA: the Kd is, setting by setting: (from contour length, omega = 18 +/- 5, n = 26 bp) 1.9 nM; (from overstretching force, omega = 80 +/- 15, n = 26 bp) 2.8 nM; (from persistence length, omega = 20 +/- 7, n = 26 bp) 2.1 nM.

For the origin of these results see paper PMC4132745.
